Experimental data as given in publication PMC4672576, “Beninese children with cerebral malaria do not develop humoral immunity against the IT4-VAR19-DC8 PfEMP1 variant linked to EPCR and brain endothelial binding” (Malaria Journal, 2015).

B1: Recombinant soluble EPCR with a 6x His tag (EPCRH) (receptor, human, UniProt Q9UNN8 18-210, looked up)
chain: SQDASDGLQRLHMLQISYFRDPYHVWYQGNASLGGHLTHVLEGPDTNTTIIQLQPLQEPESWARTQSGLQSYLLQFHGLVRLVHQERTLAFPLTIRCFLGCELPPEGSRAHVFFEVAVNGSSFVSFRPERALWQADTQVTSGVVTFTLQQLNAYNRTRYELREFLEDTCVQYVQKHISAENTKGSQTSRSYTS
notes: Endothelial protein C receptor, human, extracellular region residues S18-S210, amplified from a human lung endothelium cDNA library; glycosylated (migrates at about 40 kDa); also called recombinant EPCR; not shown: His6, C-terminal, kept
B2: VAR19-CIDRα1.1 (domain or fragment)
chain: SVECFHSWAKNLLIDTIRWEHQLKNCINNTNVTDCTSKCIKNCECYEKWIKEKEKEWPQVKGVLKKKDETSHNYYDKLKDVFDRFLFEVKGALDQDEKGKWDQFTKDLEKKFGPSVESAGTANSQDAIELLLDHLNDNATTCKDNNSLAVENCPKTKINP
notes: PfEMP1 IT4-VAR19, CIDRα1.1 domain, residues S580-P739, amplified from IT4 genomic DNA

Key:
[1] = target: T1, VAR19-NTS-DBLγ6 (N-terminal region of IT4-VAR19 comprising the full-length DC8 cassette) (Plasmodium falciparum (IT4 strain), UniProt A3R6S3 2-1713); assay: SPR; EPCRH immobilised on a CM5 chip by amine coupling (1324 RU); IT4-VAR19 proteins injected 180 s, dissociation 400 s; HBS-EP buffer, 25 °C; Biacore X100; global 1:1 Langmuir fit; details: both partners purified
T1 construct: PfEMP1 IT4-VAR19, Plasmodium falciparum IT4 (FCR3) strain, residues G2-P1713 (NTS, DBLα2, CIDRα1.1, DBLβ12, DBLγ6); synthetic codon-optimised gene; also called NTS-DBLɣ6; IT4-VAR19-DC8 cassette; not shown: His6, C-terminal, kept

[2] = target: B1; assay: as above; details: both partners purified

Binder	Kd [1] [nM]	koff [1] [s⁻¹]	kon [1] [M⁻¹ s⁻¹]	Kd [2] [nM]	koff [2] [s⁻¹]	kon [2] [M⁻¹ s⁻¹]
B1	52	0.0011	22000			
B2				340	0.012	35000
